Measurements reported in PMC11485400 (Alzheimer's & Dementia, 2024).
Like-named read-outs stand apart in the source and are kept apart here.

B1: human recombinant PrP^C 23-230 (domain or fragment)
chain: not shown
B2: caveolin-1 (Cav-1) (natural protein)
chain: MSGGKYVDSEGHLYTVPIREQGNIYKPNNKAMADELSEKQVYDAHTKEIDLVNRDPKHLNDDVVKIDFEDVIAEPEGTHSFDGIWKASFTTFTVTKYWFYRLLSALFGIPMALIWGIYFAILSFLHIWAVVPCIKSFLIEIQCISRVYSIYVHTVCDPLFEAVGKIFSNVRINLQKEI

What was measured:
Test in all cases: SPR
[1] = molecular target: T1, synthetic human Aβ1-42, oligomerised (human, UniProt P05067)
[2] = molecular target: T2, synthetic human Aβ1-40, oligomerised (human, UniProt P05067)
[3] = molecular target: T1, synthetic human Aβ1-42, oligomerised; remark: listed apart in the source
[4] = molecular target: T2, synthetic human Aβ1-40, oligomerised; remark: listed apart in the source
[5] = molecular target: B1

Binder | Kd [1] [nM] | Kd [2] [nM] | Kd [3] [nM] | Kd [4] [nM] | Kd [5] [nM]
B1 | 11.3 | 28.8 |  |  | 
B2 |  |  | 13 | 11.4 | 14.1
